# Experimental data published in patent publication US20260234276A1 (DOMAIN THERAPEUTICS, published 2026).
# Columns and labels:
# [1] = molecular target: T1, streptavidin (UniProt P22629 37-163, limits assumed); assay: ELISA, soluble Fab on streptavidin-coated control well without peptide
# T1 construct: control well without peptide
# Description: (§1) The wells of a microtiter plate were coated with 200 ng streptavidin protein in 100 μL Coating Buffer (0.1 M NaHCO₃, pH 8.6), and then incubated overnight at 4° C. For negative control, the wells were coated with PBS to determine non-specific binding. After shaking out the coating solution, the wells were washed three times with washing buffer (0.1% Tween 20-PBS). To prevent non-specific binding, 200 μL Blocking Buffer (3% BSA-PBS) was adding and incubated for 2 h at 37° C. After shaking out the blocking buffer, the wells were incubated with 50 ng biotinylated target peptide (SEQ ID NO: 420; see Example 10) in 100 μL Blocking Buffer for 1 h at 37° C. The control well was incubated with only 100 μL Blocking Buffer for 1 h at 37° C. After shaking out the biotinylated target peptide or buffer solution, the wells were washed 3 times with the washing buffer (0.1% Tween 20-PBS). Then 100 μL supernatant containing soluble Fab were added and incubated for 2 h at 37° C. Following three washes with washing buffer (0.1% Tween 20-PBS) for 3 times, 100 μL/well HRP conjugate of mouse anti-Flag tag mAb (Sigma A8592, 1:5000) diluted in Blocking Buffer were added and incubated for 1 h at 37° C. After washings, 3,3′,5,5′-tetramethylbenzidine (TMB) (Sigma) were added for 5 to 30 min at room temperature. The reaction was stopped by adding 50 μL/well of 1 M H₂SO₄.
# [2] = molecular target: T2, biotinylated CCR8 peptide (human, N-terminal biotin); assay: ELISA, soluble Fab on biotinylated CCR8 peptide captured on streptavidin
# T2 construct: first 34 residues of human CCR8 plus a C-terminal K; also called biotinylated target peptide
# Description: as §1
# T1 sequence (P22629 37-163 limits assumed): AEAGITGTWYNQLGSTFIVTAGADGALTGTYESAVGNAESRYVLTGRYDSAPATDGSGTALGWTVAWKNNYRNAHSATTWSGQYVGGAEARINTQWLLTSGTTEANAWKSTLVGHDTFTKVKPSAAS
Binder,Optical Density [1] [OD450],Optical Density [2] [OD450]
"3-67 (Fab, V domains shown, soluble Fab from phage display library huFabL-4, Flag tag) VH: QVQLQQSGPGLVKPSQTLSLTCAISGDSVSSNSAAWNWIRQSPSRGLEWLGRTYYRSKWYNDYAVSVKSRITINPDTSKNQFSLQLNSVTPEDTAVYYCARAARLGMDVWGKGTMVTVSS VL: QSVVTQPPSVSAAPGQKVTISCSGTSFNIGNNYVSWYQQLPGTAPKLLIYDNIRRPSGIPERFSGSKSGTSATLGITGLQTGDEADYYCGTWDSSLRAYVFGTGTKLTVLG",0.06,2.23
"3-68 (Fab, V domains shown, soluble Fab from phage display library huFabL-4, Flag tag) VH: QVQLQQSGPGLVKPSQTLSLTCAISGDSVSRNTAAWNWIRQSPSRGLEWLGRTYYRSKWYNDYAVSVKSRITIRPDTSKNQISLQLTSVTPEDTAVYYCARGVHNAFDIWGRGTMVTVSS VL: ETTLTQSPGTLSLSPGERATLSCRASQSVGNRYLAWYQQKPGQAPRLLIYGASSRATGIPDRFSGSGSGTDFTLTISRLEPEDFAVYYCQQYSGSTGYTFGQGTKLEIKR",0.06,3.64
"3-69 (Fab, V domains shown, soluble Fab from phage display library huFabL-4, Flag tag) VH: QVQLQQSGPGLVKPSQTLSLTCAISGDSVSSNSAAWNWIRQSPSRGLEWLGRTYYRSKWYNDYAVSVKSQITINPDTSKNQFSLQLNSVTPEDTAVYYCAREQFSGMDVWGRGTLVTVSS VL: QSVLTQPPSASGTPGQRVTISCSGSSSNIGRNYVYWYQQLPGTAPKLLTDSNNQRPSGVPDRFSASKSGTSASLAISGLRSEDEADYYCAAWDGSLRGRVFGGGTKMTVLG",0.07,2.67
"3-71 (Fab, V domains shown, soluble Fab from phage display library huFabL-4, Flag tag) VH: QVQLQESGGGLVKPGRSLRLSCTASGFTFSSYAMSWVRQAPGKGLEWVSVNSGSGGTTYYADSVKGRFTISRDNAKNTLYLQMNSLRAEDTAVYYCARVSRYYDILTGYVYAFDIWGKGTLVTVSS VL: QSVVTQPPSVSAAPGQKVSISCSGSSSNIGKNYVSWYQQLPGTAPKLLIYDNNKRPSGIPDRFSGSKSGTSATLGITGLQAEDEADYYCQSYDRSLGVVFGGGTKLTVLG",0.08,2.4
"3-72 (Fab, V domains shown, soluble Fab from phage display library huFabL-4, Flag tag) VH: QVTLKESGGGVVQPGRSLRLSCAASGFTFSSYAMHWVRQAPGKGLEWVAVISYDGSNKYYADSVKGRFTISRDNSKNTLYLQMNSLRAEDTAVYYCASSLLGAFDVWGKGTLVTVSS VL: DVVMTQSPLSLPVTPGEPASISCRSSQSLLHSNGYNYLSWYLQRPGQSPQLLMYLGSKRASGVPDRFSGSGSGTDFTLEISRVEAEDVGIYYCMQALQTPLTFGGGTKVEIKR",0.09,3.26
"3-73 (Fab, V domains shown, soluble Fab from phage display library huFabL-4, Flag tag) VH: QVQLQQSGPGLVKPSQTLSLTCAISGDSVSSSTAAWNWIRQSPSRGLEWLGRTYYRSKWYNDYAVSVKSRITINPDTSKNQFSLQLNSVTPEDTAVYYCARAEAGGRFDYWGQGTLVTVSS VL: not shown",0.07,2.27
"3-74 (Fab, V domains shown, soluble Fab from phage display library huFabL-4, Flag tag) VH: EVQLVQSGGGVVQPGRSLRLSCAASGFTFSNYGMHWVRQAPGKGLEWVAIISDDGSNRYYGDSVKGRFTISRDNSKNTLYLQMNSLRAEDTAVYYCAKSLTTSYYYGMDVWGKGTLVTVSS VL: QSALTQPPSASGSPGQSVTISCTGTSSDIGGYIYVSWYQQHPGKAPKLIIYEVHKRPSGVSNRFSASKSANTASLTISGLQAEDEADYYCSSYSSSRTVLFGGGTKLTVLG",0.09,2.81
"3-75 (Fab, V domains shown, soluble Fab from phage display library huFabL-4, Flag tag) VH: not shown VL: LPMLTQPPSVSGTPGQRVTISCSGSTSNIGSRPVNWYQQLPGTAPKLLIYRNYQRPSGVPDRFSGSKSGTSASLAISGLRSEDEADYYCAAWDDSLSGWVFGGGTKLTVLG",0.08,3.67
"3-54 (Fab, V domains shown, soluble Fab from phage display library huFabL-4, Flag tag) VH: QVQLVQSGAEVKKPGASVKVSCKASGYTFSGYYIHWVRQAPGQGLEWMGWINPNSGGTNYAQNFQGRVTMTRDTSISTAYMELSRLRSDDTAMYYCARGNGAMDVWGRGTLVTVSS VL: DVVMTQSPLSLPVTSGKPASISCRSSQSLLHSNGYNYLDWYLQKPGQSPQLLIYLGSNRASGVPDRFSGSGSGTDFTLKISRVEAEDVGVYYCMQGTYWPRTFGQGTKVEIKR",0.08,2.76
"3-55 (Fab, V domains shown, soluble Fab from phage display library huFabL-4, Flag tag) VH: QVQLQQSGPGLVKPSQTLSLTCAISGDSVSSSTAAWNWIRLSPSRGLEWLGRTYYRSKWYNDYAVSVKSRINISPDTSKNQFSLQLNSVTPEDTGVYYCARGYSRSMDVWGKGTLVTVSS VL: not shown",0.07,2.34
"3-56 (Fab, V domains shown, soluble Fab from phage display library huFabL-4, Flag tag) VH: EVQLVQSGGGVVQPGRSLRLSCAASGFTFSTYGMHWVRQAPGKGLEWVAVISYDGSKKYYADSVKGRFTISRDNSRNTVYLQMDSLRSEDTAVYYCAKDLSWPVRRLDVWGKGTMVTVSS VL: EIVLTQSPLSLPVTLGQPASISCRSSQSLVYSTGNTYLNWFHQRPGQSPRRLIYQVSNRDSGVPDRFSGSGSGTDFTLKISRVEADDVGVYYCMQGTHWPPTFGQGTKVEIKR",0.08,2.35
"3-57 (Fab, V domains shown, soluble Fab from phage display library huFabL-4, Flag tag) VH: QMQLVQSGAEVKKPGASVKVSCKASGYTFTSYYMHWVRQAPGQGLEWMGIINPSGGSTSYAQKFQGRVTMTRDTSTSTVYMELSSLRSEDTAVYYCARAGVRGVFGMDVWGKGTLVTVSS VL: QSALTQPASVSGSPGQSITISCTGTSSDLGAYNYVSWYQQHPGKAPRLMIYDVSKRPSGVPDRFSGSKSDNTASLTISGLQAEDEADYYCSSYTSSSTLVFGGGTKVTVLS",0.1,2.39
"3-59 (Fab, V domains shown, soluble Fab from phage display library huFabL-4, Flag tag) VH: GVQLVQSGGGLVQPGGSLRLSCAASGFTFSSYSMNWVRQAPGKGLEWVAVISYDESNKYYADSVKGRFTISRDNSKNTLYLQMNSLRAEDTAVYYCAPGGSYHDYWGKGTLVTVSS VL: EIVLTQSPLSLPVTLGQPASISCRSSQSLAHSNGNTYLNWFQQRPGQSPRRLIYKVSNRDSGVPDRFSGSGSGTDFTLKISRVEADDVGVYYCMQGSHWPPTFGQGTKVEIKR",0.06,1.4
"3-60 (Fab, V domains shown, soluble Fab from phage display library huFabL-4, Flag tag) VH: QVQLVQSGGGVVQPGRSLRLSCAASGFTFSSYAMHWVRQAPGKGLEWVAVISYDGSNKYYADSVKGRFTISRDNAKNSLYLQMNSLRAEDTAVYYCAREQAARPTLGAFDIWGKGTTVTVSS VL: DVVMTQSPLSLPVTPGEPASISCRSSQSLLHSNGNNYLAWYLQKPGQSPQLLMYLGSNRASGVPDRFSGSGSGTDFTLKISRVEAEDVGVYYCMQGIHLPLTFGGGTKVEIKR",0.06,3.66
"3-61 (Fab, V domains shown, soluble Fab from phage display library huFabL-4, Flag tag) VH: QVQLVESGAEVKKPGASVKVSCKASGYTFTSYYMHWVRQAPGQGLEWMGIINPSGGGTKYAQSLQGRVTMTRDTSTSTVYMELNSLTSEDTAVYYCARGGTPSGLDYWGKGTLVTVSS VL: DIQMTQSPSSLSASVGDRVTITCRASQGISNYLAWYQQKPGKVPKLLIYAASTLQSGVPSRFSGSGSGTDFTLTISSLQPEDVATYYCQKYNSAPLTFGGGTKVEIKR",0.06,2.43
"3-62 (Fab, V domains shown, soluble Fab from phage display library huFabL-4, Flag tag) VH: QVQLQQSGPGLVKPSQTLSLTCAISGDSVSNNSAAWNWIRQSPSRGLEWLGRTYYRSKWYTDYAVSVKSRITINPDTSKNQFSLQLNSVTPEDTAVYYCARASGYSSGQVEYWGKGTLVTVSS VL: QSVLTQPPSVSAAPGQKVTISCSGSSSNIGNNYISWYQQVPGTAPKLLIYGNNKRPSGIPARFSGSKSGTSATLDITGLQIGDEADYYCGTWESSLRAVVFGGGTKLTVLG",0.07,3.6
